Experimental data as given in patent US8349797 (dated 2013).
Like-named read-outs stand apart in the source and are kept apart here. Bridges are numbered along the chain shown (N, C = ends). [ ]: non-standard residue; d: D form. 1Nal = N[C@@H](Cc1cccc2ccccc12)C(=O)O; 2Nal = N[C@@H](Cc1ccc2ccccc2c1)C(=O)O; d2Nal = N[C@H](Cc1ccc2ccccc2c1)C(=O)O; Aib = CC(C)(N)C(=O)O; βAla = NCCC(=O)O

B1: Table 2A compound 15 (peptide)
chain: Ac-CEH[d2Nal]R[1Nal]ACPPKD-NH2
modifications: disulfide 1-8
SMILES: CC(=O)N[C@H]1CSSC[C@@H](C(=O)N2CCC[C@H]2C(=O)N2CCC[C@H]2C(=O)N[C@@H](CCCCN)C(=O)N[C@@H](CC(=O)O)C(N)=O)NC(=O)[C@H](C)NC(=O)[C@H](Cc2cccc3ccccc23)NC(=O)[C@H](CCCNC(=N)N)NC(=O)[C@@H](Cc2ccc3ccccc3c2)NC(=O)[C@H](Cc2c[nH]cn2)NC(=O)[C@H](CCC(=O)O)NC1=O
B2: Table 2A compound 14 (peptide)
chain: Ac-CEH[d2Nal]R[2Nal]ACPPKD-NH2
modifications: disulfide 1-8
SMILES: CC(=O)N[C@H]1CSSC[C@@H](C(=O)N2CCC[C@H]2C(=O)N2CCC[C@H]2C(=O)N[C@@H](CCCCN)C(=O)N[C@@H](CC(=O)O)C(N)=O)NC(=O)[C@H](C)NC(=O)[C@H](Cc2ccc3ccccc3c2)NC(=O)[C@H](CCCNC(=N)N)NC(=O)[C@@H](Cc2ccc3ccccc3c2)NC(=O)[C@H](Cc2c[nH]cn2)NC(=O)[C@H](CCC(=O)O)NC1=O
B3: Table 2B compound 2 (peptide)
chain: Ac-CEH[d2Nal]R[2Nal][Aib]CPPKD-NH2
modifications: disulfide 1-8
SMILES: CC(=O)N[C@H]1CSSC[C@@H](C(=O)N2CCC[C@H]2C(=O)N2CCC[C@H]2C(=O)N[C@@H](CCCCN)C(=O)N[C@@H](CC(=O)O)C(N)=O)NC(=O)C(C)(C)NC(=O)[C@H](Cc2ccc3ccccc3c2)NC(=O)[C@H](CCCNC(=N)N)NC(=O)[C@@H](Cc2ccc3ccccc3c2)NC(=O)[C@H](Cc2c[nH]cn2)NC(=O)[C@H](CCC(=O)O)NC1=O
B4: Table 2B compound 1 (peptide)
chain: Ac-CEH[d2Nal]R[2Nal][βAla]CPPKD-NH2
modifications: disulfide 1-8
SMILES: CC(=O)N[C@H]1CSSC[C@@H](C(=O)N2CCC[C@H]2C(=O)N2CCC[C@H]2C(=O)N[C@@H](CCCCN)C(=O)N[C@@H](CC(=O)O)C(N)=O)NC(=O)CCNC(=O)[C@H](Cc2ccc3ccccc3c2)NC(=O)[C@H](CCCNC(=N)N)NC(=O)[C@@H](Cc2ccc3ccccc3c2)NC(=O)[C@H](Cc2c[nH]cn2)NC(=O)[C@H](CCC(=O)O)NC1=O

What was measured:
Assay in all cases: competition
[1] = molecular target: T1, hMC4-R (human, UniProt P32245)
[2] = molecular target: T2, hMC5-R (human, UniProt P33032)
[3] = molecular target: T3, hMC3-R (human, UniProt P41968)
[4] = molecular target: T4, hMC1-R (human, UniProt Q01726)
[5] = molecular target: T2, hMC5-R; remark: listed apart in the source
[6] = molecular target: T4, hMC1-R; remark: listed apart in the source
[7] = molecular target: T1, hMC4-R; remark: listed apart in the source
[8] = molecular target: T3, hMC3-R; remark: listed apart in the source

T3 sequence (P41968 whole entry): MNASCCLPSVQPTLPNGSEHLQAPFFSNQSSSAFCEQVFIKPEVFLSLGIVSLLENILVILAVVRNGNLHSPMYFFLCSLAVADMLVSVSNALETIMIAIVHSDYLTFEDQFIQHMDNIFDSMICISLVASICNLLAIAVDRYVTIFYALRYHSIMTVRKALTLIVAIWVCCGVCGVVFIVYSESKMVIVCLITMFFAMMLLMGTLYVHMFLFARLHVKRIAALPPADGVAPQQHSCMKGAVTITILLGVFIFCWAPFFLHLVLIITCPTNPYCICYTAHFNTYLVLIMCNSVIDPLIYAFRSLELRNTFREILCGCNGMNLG
T1 sequence (P32245 whole entry): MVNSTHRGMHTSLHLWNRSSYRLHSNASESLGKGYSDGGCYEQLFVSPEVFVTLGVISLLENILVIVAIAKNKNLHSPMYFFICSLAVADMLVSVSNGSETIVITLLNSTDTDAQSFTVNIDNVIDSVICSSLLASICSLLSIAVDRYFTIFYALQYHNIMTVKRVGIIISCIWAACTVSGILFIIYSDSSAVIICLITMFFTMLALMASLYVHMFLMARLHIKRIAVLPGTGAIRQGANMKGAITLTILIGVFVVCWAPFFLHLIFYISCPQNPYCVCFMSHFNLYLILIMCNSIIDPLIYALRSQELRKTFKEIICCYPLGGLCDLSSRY
T4 sequence (Q01726 whole entry): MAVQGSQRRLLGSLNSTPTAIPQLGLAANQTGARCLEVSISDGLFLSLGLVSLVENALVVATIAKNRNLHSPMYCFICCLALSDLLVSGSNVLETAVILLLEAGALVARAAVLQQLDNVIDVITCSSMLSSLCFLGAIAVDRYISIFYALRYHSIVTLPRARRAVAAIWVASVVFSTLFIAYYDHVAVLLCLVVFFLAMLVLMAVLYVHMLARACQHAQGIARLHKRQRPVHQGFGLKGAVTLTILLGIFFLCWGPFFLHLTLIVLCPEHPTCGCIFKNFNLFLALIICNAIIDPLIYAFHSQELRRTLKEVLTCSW
T2 sequence (P33032 whole entry): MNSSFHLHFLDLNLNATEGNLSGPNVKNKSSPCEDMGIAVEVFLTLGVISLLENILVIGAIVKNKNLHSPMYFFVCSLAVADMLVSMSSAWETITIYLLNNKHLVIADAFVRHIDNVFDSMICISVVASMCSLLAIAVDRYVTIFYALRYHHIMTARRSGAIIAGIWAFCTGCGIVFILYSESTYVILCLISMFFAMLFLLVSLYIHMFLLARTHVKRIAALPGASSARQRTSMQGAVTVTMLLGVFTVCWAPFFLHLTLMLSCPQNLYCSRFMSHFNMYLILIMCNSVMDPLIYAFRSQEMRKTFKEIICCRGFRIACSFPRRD

Binder | Ki [1] [nM] | Ki [2] [nM] | Ki [3] [nM] | Ki [4] [nM] | Ki [5] [nM] | Ki [6] [nM] | Ki [7] [nM] | Ki [8] [nM]
B1 | 1.11 | 348 | 17.8 | 124 |  |  |  | 
B2 | 1.2 | 359 | 9.08 | 87.8 |  |  |  | 
B3 |  |  |  |  | 979 | 1820 | 5.87 | 306
B4 |  |  |  |  | 239 | 2060 | 10.7 | 113
